The results in this text go back to patent US20130266567A1 (published 2013).

Where “and” joins values, the source holds several entries; their conditions need not be identical. Equal entries are not always repeated.

Experiment [1] deals with T1, Mouse serum albumin (mouse, UniProt P07724 25-608).
T1 construct: mature; bought purified protein; coupled to CM5 BIAcore chip; also called mouse SA; MSA
The experiment is described as follows: SPR, BIAcore 3000, serum albumin coupled to CM5 chip. (In general: In SPR one partner is held on a chip, and binding of the other changes the refractive index at the surface.)
Protocol: (§1) Cross-reactivity of the AlbudAbs™ (ie, anti-serum albumin dAbs) was determined against human, Cynomolgus monkey (cyno), rat and mouse serum albumin using surface plasmon resonance (SPR). In this case, Biacore™ was used. Biacore™ 2000/3000 was used for the supernatant screens and determination of binding kinetic all of dAbs described herein. Biacore™ T100 was used for the determination of cross-reactivity of lead Vk and VH Albudabs to a wider range of species' SAs (12 in total). Protein samples were run on the T100 BIAcore as described for the BIAcore2000/3000 experiments. […] Where appropriate, a kinetic Langmuir 1:1 fitting model was used.

Experiment [2] deals with T2, Human serum albumin (human, UniProt P02768 25-609).
T2 construct: coupled to CM5 BIAcore chip; also called human SA; HSA
The experiment can be described thus: SPR, BIAcore T100, equilibrium KD.
Protocol: as §1

For experiment [3], the target named is T3, Rat serum albumin (rat, UniProt P02770 25-608).
T3 construct: coupled to CM5 BIAcore chip; also called rat SA; RSA
The experiment can be described thus: SPR, BIAcore T100, equilibrium KD.
Protocol: as §1

Experiment [4] addresses T1, Mouse serum albumin. The experiment can be described thus: SPR, BIAcore T100, equilibrium KD.
Protocol: as §1
In another experiment the target is Marmoset serum albumin (marmoset). The experiment is described as follows: SPR, BIAcore T100, equilibrium KD.
A further experiment has as its target Dog serum albumin (dog, UniProt P49822 25-608). The experiment is described as follows: SPR, BIAcore T100, equilibrium KD.
The target in the next experiment is Ferret serum albumin (ferret). The experiment is described as follows: SPR, BIAcore T100, equilibrium KD.
The target in another experiment is Pig serum albumin (pig, UniProt P08835 25-607). The experiment can be described thus: SPR, BIAcore T100, equilibrium KD.
A further experiment deals with Mini Pig serum albumin (mini pig). The experiment can be described thus: SPR, BIAcore T100, equilibrium KD.
Another experiment addresses Guinea Pig serum albumin (guinea pig). The experiment can be described thus: SPR, BIAcore T100, equilibrium KD.
Another experiment has as its target Rabbit serum albumin (rabbit, UniProt P49065 25-608). The experiment can be described thus: SPR, BIAcore T100, equilibrium KD.
Experiment [5] deals with T3, Rat serum albumin. The experiment is described as follows: SPR, BIAcore 3000, serum albumin coupled to CM5 chip.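 Further: Cross-reactivity of anti-serum albumin domain antibodies measured against human, cynomolgus monkey, rat and mouse serum albumin, binding kinetics giving Kd.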
Protocol: as §1
Experiment [6] concerns the target T2, Human serum albumin. The experiment can be described thus: SPR, BIAcore 3000, serum albumin coupled to CM5 chip; first of two independent measurements on different protein batches.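 Further: Cross-reactivity of anti-serum albumin domain antibodies measured against human, cynomolgus monkey, rat and mouse serum albumin, binding kinetics giving Kd.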
Protocol: as §1
Experiment [7] deals with T2, Human serum albumin. The experiment is described as follows: SPR, BIAcore 3000, serum albumin coupled to CM5 chip; second of two independent measurements; marked with an unexplained caret.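 Further: Cross-reactivity of anti-serum albumin domain antibodies measured against human, cynomolgus monkey, rat and mouse serum albumin, binding kinetics giving Kd.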
Protocol: as §1
Experiment [8] has as its target T2, Human serum albumin. The experiment is described as follows: SPR, BIAcore 3000, serum albumin coupled to CM5 chip.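 Further: Cross-reactivity of anti-serum albumin domain antibodies measured against human, cynomolgus monkey, rat and mouse serum albumin, binding kinetics giving Kd.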
Protocol: as §1
For experiment [9], the target named is T4, Cynomolgus serum albumin (Cynomolgus monkey, UniProt A2V9Z4 25-608).
T4 construct: mature; purified native protein; coupled to CM5 BIAcore chip; also called cyno SA; CSA
The experiment can be described thus: SPR, BIAcore T100, equilibrium KD.
Protocol: as §1

A further experiment deals with Sheep serum albumin (sheep, UniProt P14639 25-607). The experiment can be described thus: SPR, BIAcore T100, equilibrium KD.
Experiment [10] has as its target T4, Cynomolgus serum albumin. The experiment can be described thus: SPR, BIAcore 3000, serum albumin coupled to CM5 chip.
Protocol: as §1
The target in experiment [11] is T3, Rat serum albumin. The experiment is described as follows: SPR, BIAcore 3000, serum albumin coupled to CM5 chip; last of the independent measurements on different protein batches.

Protocol for Dog serum albumin: as §1
Protocol for Ferret serum albumin: as §1
Protocol for Guinea Pig serum albumin: as §1
Protocol for Marmoset serum albumin: as §1
Protocol for Mini Pig serum albumin: as §1
Protocol for Rabbit serum albumin: as §1
Protocol for Sheep serum albumin: as §1

B1: DOM7r-31-14 (VHH)
VHH: EVQLLESGGGLVQPGGSLRLSCTASGFTFRHYRMGWVRQAPGKGLEWVSWIRPDGTFTYYADSVKGRFTISRDNSKNTLYLQMNSLRAEDTAVYYCAKSYMADRFDYWGQGTLVTVSS
notes: VH immunoglobulin single variable domain (dAb, AlbudAb), not a camelid VHH; tested with a myc tag; also called 7r31-14 (Parent); not shown: myc tag
For the molecule B1, the Kd – broadly, the free concentration of one partner at which half of the binding sites on the other are occupied at equilibrium, for simple one-to-one binding – with Mouse serum albumin [1] was 6 nM and 12 nM and 14.2 nM.

B2: DOM7r-31-104 (VHH)
VHH: EVQLLESGGGLVQPGGSLRLSCTASGFTFRHYRMGWVRQAPGKGLEWVSWIRPDGTFTYYADSVKGRFTISRDNSKNTLYLQMNSLRAEDTAVYYCAKSYMAGTFDYWGQGTLVTVSS
notes: VH immunoglobulin single variable domain (dAb, AlbudAb), not a camelid VHH; tested with a myc tag; not shown: myc tag
Consider B2, for which the dissociation constant Kd in the experiment with Human serum albumin [2] is 25.9 nM; with Rat serum albumin [3], 6.09 nM; with Mouse serum albumin [4], 59.5 nM; with Marmoset serum albumin, 4900 nM; with Dog serum albumin it was 8.26 nM; with Ferret serum albumin it was 13.9 nM. The Kd was 415 nM with Pig serum albumin; 412 nM in the experiment with Mini Pig serum albumin; 1630 nM with Guinea Pig serum albumin; 1990 nM in the experiment with Rabbit serum albumin; 11.9 nM and 7.6 nM with Rat serum albumin [5]; 89.1 nM with Human serum albumin [6]. In the experiment with Human serum albumin [7], the Kd was determined as 81 nM.

B3: DOM7r-31-100 (VHH)
VHH: EVQLLEPGGGLVQPGGSLRLSCTASGFTFRHYRMGWVRQAPGKGLEWVSWIRPDGTFTYYADSVKGRFTISRDNSKNTLYLQMNSLRAEDTAVYYCAKSYLSGTFDYWGQGTLVTVSS
notes: as for B2
For B3, the Kd in the experiment with Human serum albumin [8] was 260 nM and 287 nM; with Rat serum albumin [5], 40 nM and 41 nM; with Mouse serum albumin [1] it was 5.4 nM and 12.7 nM.

B4: DOM7r-31-103 (VHH)
VHH: EVQLLESGGGLVQPGGSLRLSCTASGFTFRHYRMGWVRQAPGKGLEWVSWIRPDGTFTYYADSVKGRFTISRDNSKNTLYLQMNSLRAEDAAVYYCAKSYMSGTFDYWGQGTLVTVSS
notes: as for B2
For the molecule B4, the Kd with Human serum albumin [8] was 200 nM and 95 nM; in the experiment with Rat serum albumin [5], 40 nM.

B5: DOM7r-31-101 (VHH)
VHH: EVQLLESGGGLVQPGGSLRLSCTASGFTFRHYRMGWVRQAPGKGLEWVSWIRPDGTFTYYADSVKGRFTISRDNSKNTLYLQMNSLRAEDTAVYYCAKSYQAGTFDYWGQGTLVTVSS
notes: as for B2
For B5, the Kd with Human serum albumin [8] is 367 nM and 240 nM.

B6: DOM7r-31-102 (VHH)
VHH: EVQLLESGGGLVQPGGSLRLSCTASGFTFRHYRMGWVRQAPGKGLEWVSWIRPDGTFTYYADSVKGRFTISRDNSKNTLYLQMNSLRAEDTAVYYCAKSYHADKFDYWGQGTLVTVSS
notes: as for B2
Consider B6, for which the Kd is 158 nM and 100 nM with Human serum albumin [8]; 67 nM and 30 nM with Rat serum albumin [5].

B7: DOM7r-92-100 (VHH)
VHH: EVQLLESGGGLVQPGGSLRLSCAASGFTFDTSSMLWVRQAPGKGLEWVSVIHQSGTPTYYADSVKGRFTISRDNSKNTLYLQMNSLRAEDTAVYYCAKFPSSRMKFDYWGQGTLVTVSS
notes: VH immunoglobulin single variable domain (dAb, AlbudAb), not a camelid VHH; tested with a myc tag; MALLS: dimer 10%, monomer 90%; also called DOM7r-92-100 myc; not shown: myc tag
For B7, the Kd with Human serum albumin [2] stood at 3.56 nM; in the experiment with Cynomolgus serum albumin [9] it was 10.7 nM; in the experiment with Rat serum albumin [3] it was 54.3 nM; with Mouse serum albumin [4], 61.5 nM; in the experiment with Marmoset serum albumin, 7.37 nM; with Dog serum albumin, 450 nM. For the same molecule, the Kd is 317 nM in the experiment with Ferret serum albumin; 191 nM with Pig serum albumin; 308 nM with Mini Pig serum albumin; 136 nM with Rabbit serum albumin; 569 nM with Sheep serum albumin; 33 nM and 90 nM in the experiment with Mouse serum albumin [1].

B8: DOM7r-92-102 (VHH)
VHH: EVQLLESGGGLVQPGGSLRLSCAASGFTFDTSSMLWVRQAPGKGLEWVSVIHQSGTPTYYADSVKGRFTISRDNSKNTLYLQMNSLRAEDTAVYYCAKFPSSQFRFDYWGQGTLVTVSS
notes: as for B2
Consider B8, for which the dissociation constant Kd with Human serum albumin [8] came to 28 nM; with Cynomolgus serum albumin [10], 32 nM; with Rat serum albumin [5] it was 100 nM; with Mouse serum albumin [1] it was 280 nM.

B9: DOM7r-92-101 (VHH)
VHH: EVQLLESGGGLVQPGGSLRLSCAASGFTFDTSSMLWVRQAPGKGLEWVSVIHQSGTPTYYADSVKGRFTISRDNSKNTLYLQMNSLRAEDTAVYYCAKFPSRKMKFDYRGQGTLVTVSS
notes: as for B2
Take B9: the Kd is 15 nM and 8 nM in the experiment with Human serum albumin [8]; 120 nM with Cynomolgus serum albumin [10]; 23 nM and 16 nM with Rat serum albumin [5]; 56 nM with Mouse serum albumin [1].

B10: DOM7r-92-103 (VHH)
VHH: EVQLLESGGGLVQPGGSLRLSCAASGFTFDTSSMLWVRQAPGKGLEWVSVIHQSGTPTYYADSVKGRFTISRDNSKNTLYLQMNSLRAEDTAVYYCAKFPSEGMNFDYWGQGTLVTVSS
notes: as for B2
With B10, the Kd with Human serum albumin [8] is 160 nM and 123 nM; with Cynomolgus serum albumin [10] it was 770 nM.

B11: DOM7r-92-4 (VHH)
VHH: EVQLLESGGGLVQPGGSLRLSCAASGFTFDTSSMLWVRQAPGKGLEWVSVIHQSGTPTYYADSVKGRFTISRDNSKNTLYLQMNSLRAEDTAVYYCAKFPSTHGKFDYWGQGTLVTVSS
notes: VH immunoglobulin single variable domain (dAb, AlbudAb), not a camelid VHH; tested with a myc tag; also called 7r92-4 (Parent); not shown: myc tag
As to B11, in the experiment with Human serum albumin [8], the equilibrium dissociation constant (Kd) was 260 nM and 420 nM.

B12: DOM7r-36-2 (VHH)
VHH: EVQLLESGGGLVQPGGSLRLSCAASGFTFNHYTMGWVRQAPGKGREWVSLIHPSGTVTYYADSVKGRFTISRDNSKNTLYLQMNSLRAEDTAVYYCAKWSSRAFDYWGQGTLVTVSS
notes: VH immunoglobulin single variable domain (dAb, AlbudAb), not a camelid VHH; tested with a myc tag; also called 7r36-2 (Parent); not shown: myc tag
In the case of B12, the dissociation constant (Kd) was 190 nM and 360 nM and 305 nM and 385 nM with Human serum albumin [8]; 800 nM and 815 nM and 628 nM and 1500 nM in the experiment with Cynomolgus serum albumin [10]; 467 nM and 330 nM and 244 nM and 229 nM with Rat serum albumin [5].

B13: DOM7r-36-106 (VHH)
VHH: EVQLLESGGGLVQPGGSLRLSCAASGFTFNHYTMGWVRQAPGKGREWVSLIHPSGTVTYYADSVKGRFTISRDNSKNTLYLQMNSLRAEDTAVYYCAKFRGRGFDYWGQGTLVTVSS
notes: as for B2
Take B13: the Kd with Human serum albumin [8] was 209 nM and 124 nM; in the experiment with Cynomolgus serum albumin [10] it was 840 nM and 1100 nM; with Rat serum albumin [5], 75 nM; in the experiment with Mouse serum albumin [1], 113 nM and 73 nM; with Rat serum albumin [11], 42 nM.

B14: DOM7r-36-100 (VHH)
VHH: EVQLLESGGGLVQPGGSLRLSCAASGFTFNHYTMGWVRQAPGKGREWVSLIHPSGTVTYYADSVKGRFTISRDNSKNTLYLQMNSLRAEDTAVYYCAKWERRTFDYWGQGTLVTVSS
notes: as for B2
In the case of B14, the Kd with Human serum albumin [8] was 74 nM and 100 nM and 35 nM; with Cynomolgus serum albumin [10], 87 nM and 230 nM; with Rat serum albumin [5], 105 nM and 70 nM; with Mouse serum albumin [1] it was 100 nM.

B15: DOM7r-36-103 (VHH)
VHH: EVQLLESGGGLVQPGGSLRLSCAASGFTFNHYTMGWVRQAPGKGREWVSLIHPSGTVTYYADSVKGRFTTSRDNSKNTLYLQMNSLRAEDTAVYYCAKWDRKLFDHWGQGTLVTVSS
notes: as for B2
As to B15, the Kd with Human serum albumin [8] is 62 nM and 65 nM; with Cynomolgus serum albumin [10] it was 94 nM; in the experiment with Rat serum albumin [5] it was 100 nM and 57 nM; in the experiment with Mouse serum albumin [1], 270 nM.

B16: DOM7r-36-101 (VHH)
VHH: EVQLLESGGGLVQPGGSLRLSCAASGFTFNHYTMGWVRQAPGKGREWVSLIHPSGTVTYYADSVKGRFTISRDNSKNTLYLQMNSLRAEDTAVYYCAKWFLKSFDYWGQGTLVTVSS
notes: as for B2
For B16, the equilibrium dissociation constant (Kd) was determined as 86 nM in the experiment with Human serum albumin [8], 72 nM in the experiment with Cynomolgus serum albumin [10] and 183 nM with Rat serum albumin [5].

B17: DOM7r-36-108 (VHH)
VHH: EVQLLESGGGLVQPGGSLRLSCAASGFTFNHYTMGWVRQAPGKGREWVSLIHPSGTVTYYADSVKGRFTTSRDNSKNTLYLQMNSLRAEDTAVYYCAKLEGRSFDYWGQGTLVTVSS
notes: as for B2
As for B17, the dissociation constant Kd with Human serum albumin [8] was 82 nM and 67 nM; with Cynomolgus serum albumin [10], 265 nM; in the experiment with Mouse serum albumin [1], 37.6 nM.

B18: DOM7r-36-102 (VHH)
VHH: EVQLLESGGGLVQPGGSLRLSCAASGFTFNHYTMGWVRQAPGKGREWVSLIHPSGTVTYYADSVKGRFTISRDNSKNTLYLQMNSLRAEDTAVYYCAKWFYRNFDYWGQGTLVTVSS
notes: as for B2
Take B18: the figures for the Kd with Cynomolgus serum albumin [10], with Rat serum albumin [5] and with Mouse serum albumin [1] were 430 nM, 100 nM and 250 nM, respectively.

B19: DOM7r-36-105 (VHH)
VHH: EVQLLESGGGLVQPGGSLRLSCAASGFTFNHYTMGWVRQAPGKGREWVSLIHPSGTVTYYADSVKGRFTISRDNSKNTLYLQMNSLRAEDTAVYYCAKLGTKVFDYWGQGTLVTVSS
notes: as for B2
In the case of B19, the equilibrium dissociation constant (Kd) was 284 nM and 313 nM in the experiment with Human serum albumin [8]; 170 nM with Rat serum albumin [5].
